Measured values reported in article doi:10.1101/2025.05.16.654599 (bioRxiv, 2025).

Columns and labels:
mNeon PPM1H (human) = mNeon PPM1H (human) (UniProt Q9ULR3); experiment: MST; unlabeled Rab titrated (16 serial dilutions) against 100 nM fluorescent mNeon PPM1H form; Monolith NT.115; 30 min in the dark in a reaction buffer; 3 independent measurements with different protein preparations
mNeon PPM1H = target: T1, mNeon PPM1H (human, UniProt Q9ULR3 1-514); experiment: as above; details: both partners purified
T1 construct: PPM1H phosphatase, human, full length; mNeon inserted into loop 1 (residues 115-133) at position 125; mNeon is the fluorophore read in MST; not measured here; also called HisSUMO-mNeon PPM1H; His SUMO mNeon PPM1H; not shown: His-SUMO, N-terminal, cleaved; mNeon, internal (in loop 1 at position 125), kept
T1 sequence (looked up): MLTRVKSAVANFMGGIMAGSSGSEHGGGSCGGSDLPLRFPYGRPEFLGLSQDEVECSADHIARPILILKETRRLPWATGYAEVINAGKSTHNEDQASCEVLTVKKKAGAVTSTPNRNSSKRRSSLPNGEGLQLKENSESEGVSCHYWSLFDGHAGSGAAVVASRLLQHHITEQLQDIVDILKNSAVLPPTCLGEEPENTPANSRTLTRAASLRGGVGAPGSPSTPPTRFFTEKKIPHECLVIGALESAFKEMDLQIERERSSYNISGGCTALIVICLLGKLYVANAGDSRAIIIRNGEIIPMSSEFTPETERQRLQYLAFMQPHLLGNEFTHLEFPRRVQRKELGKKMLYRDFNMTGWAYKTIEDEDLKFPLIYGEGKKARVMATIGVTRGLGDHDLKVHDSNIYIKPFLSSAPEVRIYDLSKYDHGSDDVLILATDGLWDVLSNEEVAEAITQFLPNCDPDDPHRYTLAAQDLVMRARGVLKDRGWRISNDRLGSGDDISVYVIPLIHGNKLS

For “Rab12 (Q101L) full length (from UniProt Q6IQ22-2 1-244) (natural protein)”, the Kd (mNeon PPM1H (human)) was 7.4 µM.

B1: Rab10 (Q68L) full length (natural protein, human, UniProt P61026 1-200, looked up)
chain: MAKKTYDLLFKLLLIGDSGVGKTCVLFRFSDDAFNTTFISTIGIDFKIKTVELQGKKIKLQIWDTAGLERFHTITTSYYRGAMGIMLVYDITNGKSFENISKWLRNIDEHANEDVERMLLGNKCDMDDKRVVPKGKGEQIAREHGIRFFETSAKANINIEKAFLTLAEDILRKTPVKEPNSENVDISSGGGVTGWKSKCC
notes: also called His SUMO Rab10 (Q68L); non-phosphorylated Rab10; not shown: His-SUMO, N-terminal, cleaved
B1 showed a Kd (mNeon PPM1H) of 1.3 ± 0.9 µM.

B2: His Rab8A (Q67L) full length (natural protein, human, UniProt P61006 1-207, looked up)
chain: MAKTYDYLFKLLLIGDSGVGKTCVLFRFSEDAFNSTFISTIGIDFKIRTIELDGKRIKLQIWDTAGLERFRTITTAYYRGAMGIMLVYDITNEKSFDNIRNWIRNIEEHASADVEKMILGNKCDVNDKRQVSKERGEKLALDYGIKFMETSAKANINVENAFFTLARDIKAKMDKKLEGNSPQGSNQGVKITPDQQKRSSFFRCVLL
notes: Printed both as 'His Rab8A' and 'Rab8A-6XHis'; also called Rab8A-6XHis; non-phosphorylated Rab8A
B2 gave a Kd (mNeon PPM1H) of 1.4 ± 0.98 µM.

B3: thio-phosphorylated Rab8A (natural protein, human, UniProt P61006 1-207, looked up)
chain: MAKTYDYLFKLLLIGDSGVGKTCVLFRFSEDAFNSTFISTIGIDFKIRTIELDGKRIKLQIWDTAGLERFRTITTAYYRGAMGIMLVYDITNEKSFDNIRNWIRNIEEHASADVEKMILGNKCDVNDKRQVSKERGEKLALDYGIKFMETSAKANINVENAFFTLARDIKAKMDKKLEGNSPQGSNQGVKITPDQQKRSSFFRCVLL
modifications: thio-phosphorylated with ATPγS by MST3 kinase (residue not given); fully modified by PhosTag gel
notes: Rab8A GTPase, human, full length, non-prenylated, Q67L, thio-phosphorylated; Removal of His-MST3 before MST is not described for this preparation; also called thio-pRab8A; His pRab8A Q67L; source: E. coli, purified His Rab8A Q67L, then incubated overnight at 4°C with His-MST3 kinase and 2 mM ATPγS
B3 showed a Kd (mNeon PPM1H) of 0.99 ± 0.63 µM.
